Assay [1] concerns the target T1, extracellular domain of canine IL-31RA fused to murine IgG2A Fc (canine).
T1 construct: also called Canine IL-31RA-murine IgG2A Fc; Canine IL-31RA-mFc
T1 chain: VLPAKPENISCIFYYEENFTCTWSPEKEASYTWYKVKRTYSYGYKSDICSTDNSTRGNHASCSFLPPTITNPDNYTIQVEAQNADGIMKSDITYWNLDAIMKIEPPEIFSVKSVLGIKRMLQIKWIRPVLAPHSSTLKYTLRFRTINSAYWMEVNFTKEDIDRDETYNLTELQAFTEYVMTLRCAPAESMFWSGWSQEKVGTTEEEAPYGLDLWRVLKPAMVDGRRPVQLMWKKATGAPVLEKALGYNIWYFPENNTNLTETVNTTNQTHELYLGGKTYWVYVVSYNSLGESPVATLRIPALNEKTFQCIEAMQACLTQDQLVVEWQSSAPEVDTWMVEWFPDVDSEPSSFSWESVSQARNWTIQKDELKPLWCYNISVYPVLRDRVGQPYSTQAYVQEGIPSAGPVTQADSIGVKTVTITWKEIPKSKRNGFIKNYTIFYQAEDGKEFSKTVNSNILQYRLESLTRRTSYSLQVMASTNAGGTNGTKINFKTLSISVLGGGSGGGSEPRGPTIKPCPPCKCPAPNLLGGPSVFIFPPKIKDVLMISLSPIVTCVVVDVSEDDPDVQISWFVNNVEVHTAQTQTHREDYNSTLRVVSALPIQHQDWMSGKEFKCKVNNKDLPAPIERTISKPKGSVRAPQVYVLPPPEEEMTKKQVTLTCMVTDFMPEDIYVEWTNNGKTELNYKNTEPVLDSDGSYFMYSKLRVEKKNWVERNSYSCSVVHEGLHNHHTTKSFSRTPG
Nature of the assay: SPR Biacore T200, antibody captured on anti-human IgG chip, canine IL-31RA-mFc as analyte, 1:1 model. As to the method: Canine IL-31RA-murine IgG2A Fc was generated by transiently transfecting pcDNA3.4 containing Sequence 3 into GenScript HD (High Density) CHO-S cells and purified with MabSelect SuRe LX chromatography. Further purification of the recombinant protein was completed using gel filtration with TSKgel G3000SWxi chromatography. […] Antibodies were flowed over the anti-human IgG sensor chip at a concentration of 1 μg/ml in 1×HBS-EP+ (Cytiva, BR100826) for 60 seconds at a flow rate of 10 μL/min. Canine IL-31RA-mFc (100 nM, 50 nM, 25 nM, 12.5 nM, 6.25 nM, […]) solutions in 1×HBS-EP+ was flown over the sensor chips for a contact time of 120 s and a dissociation time of 600 s at a flow rate of 30 μL/min. Double reference-subtracted sensorgrams were fitted to a 1:1 binding model using Biacore T200 Evaluation software and the kinetics of binding are shown below in Table 4.

Assay [2] deals with canine IL-31 receptor alpha (IL-31RA) on canine DH-82 cells (canine). The experiment in a line: cell-based or functional assay.
Assay [3] concerns the target T1, extracellular domain of canine IL-31RA …. The experiment in a line: SPR Biacore T200, antibody captured on anti-dog H+L chip, canine IL-31RA-mFc as analyte; relative affinity scale: *** 3 pM-100 pM, ** 101 pM-1 nM, * 1.1 nM-20 nM (avidity). As to the method:
(§1) The different heavy and light chain combinations were co-transfected into ExpiCHO cells using the ExpiCHO transfection kit (ThermoFisher; Cat. #A29133). Seven days following the transient transfection, the IgG in the conditioned medium was purified using MabSelect SuRe chromatography. The antibodies were buffer-exchanged into PBS, pH 7.4. The relative affinity of the variants was determined by SPR on a Biacore T200. The antibody was captured using a CM5 Series S chip amine coupled with an anti-dog H+L antibody (Jackson Immunoresearch). Canine IL-31RA-mFc (100 nM, 50 nM, 25 nM, 12.5 nM, 6.25 nM, 3.625 nM) solutions in 1×HBS-EP+ was flown over the sensor chip for a contact time of 120 s and a dissociation time of 600 s at a flow rate of […]. Double reference-subtracted sensorgrams were fitted to a 1:1 binding model using Biacore T200 Evaluation software. The canine IL-31RA antigen was both a dimer and aggregated so there were avidity effects with the measured affinities. […] Following the initial results with the single variants, a heavy chain containing the W53F variant and the M118I variant was synthesized and subcloned into pcDNA 3.4 (SEQ ID NO:18). The same methods as described above for expression and purification of the variant along with measuring the relative affinity were used to determine the relative affinity of the W53F/M118I heavy chain variant combined with the S95A light chain and the N94Q light chain variants.
For orientation: Surface plasmon resonance follows binding to a sensor surface in real time, without labels.

Assay [4] deals with T2, canine IL-31RA (20-308)-AviTag-His Tag, monomeric (canine).
T2 construct: Signal peptide (first 19 residues) left out; also called monomeric IL-31RA
T2 chain: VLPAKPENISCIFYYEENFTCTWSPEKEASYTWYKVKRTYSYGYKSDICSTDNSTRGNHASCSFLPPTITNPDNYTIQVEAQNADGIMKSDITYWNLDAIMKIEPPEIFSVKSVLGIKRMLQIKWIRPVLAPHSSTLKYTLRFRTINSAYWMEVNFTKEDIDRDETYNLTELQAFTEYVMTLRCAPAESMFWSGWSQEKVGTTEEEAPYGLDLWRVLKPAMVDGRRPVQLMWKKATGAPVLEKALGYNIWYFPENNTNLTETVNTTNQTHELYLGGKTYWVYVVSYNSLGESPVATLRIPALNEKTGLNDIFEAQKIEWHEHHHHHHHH
The experiment in a line: SPR Biacore T200, antibody captured on anti-dog H+L chip, monomeric canine IL-31RA (20-308) as analyte. As to the method:
as §1, with “The” for “The different heavy and light chain combinations were co-transfected into ExpiCHO cells using the ExpiCHO transfection kit (ThermoFisher; Cat. #A29133). Seven days following the transient transfection, the IgG in the conditioned medium was purified using MabSelect SuRe chromatography. The antibodies were buffer-exchanged into PBS, pH 7.4. The relative affinity of the variants was determined by SPR on a Biacore T200. The”
To reduce the avidity effects from using the canine IL-31RA-mouse Fc construct in SPR experiments, a monomeric construct was generated which contains amino acids 20-308 of the canine IL-31IRA extracellular domain (SEQ ID NO:28). This construct has the AviTag sequence ([…] (SEQ ID NO:51)) followed by an 8×His(SEQ ID NO:52) tag to facilitate purification. GenScript HD (High Density) CHO-S cells were transiently transfected with pcDNA 3.4 containing Sequence 28 and purified with HisTrap FF chromatography. Further purification of the recombinant protein was completed using gel filtration with Cytiva HiLoad 26/600 Superdex chromatography to isolate the monomeric IL-31RA species. […] These clones were evaluated in an SPR experiment using the same conditions as described for the caninized clones except the analyte is canine IL-31RA (20-308).

Assay [5] concerns the target T1, extracellular domain of canine IL-31RA …. Nature of the assay: SPR Biacore T200, antibody captured on anti-dog H+L chip, canine IL-31RA-mFc as analyte; relative affinity scale: *** 3 pM-100 pM, ** 101 pM-1 nM, * 1.1 nM-20 nM (avidity). As to the method: as §1, with “Seven” for “The different heavy and light chain combinations were co-transfected into ExpiCHO cells using the ExpiCHO transfection kit (ThermoFisher; Cat. #A29133). Seven”

Positions count from the first letter of the chain named. Names may count otherwise.

B1: Clone 109 (human antibody 109, human IgG1) (antibody, V domains shown)
VH: EVQLVESGGGVVRPGGSLRLSCAASGFTFDDYGMSWVRQIPGRGLEWVSGINWAGGTIGYADSVKGRFTVSRDDANNSLYLQMNSLRAEDTALYLCARESPLRLGDLGGDYFYYYYYMDVWGKGTTVTVSS
VL: EIVLTQSPGTLSLSPGERATLSCRASQSVSSRYLVWYQQKPGQAPRLLIYGTSSRATGIPDRFSGSGSGTDFTLTISRLEPEDFAVYYCQQYDNSPRTFGQGTKVEIKR
By Kd is commonly meant a measure of binding affinity in units of concentration. The koff is the first-order rate constant of dissociation. One may read the kon as the rate constant with which the complex forms. In assay [1], B1 displayed a Kd of 0.506 nM, a koff of 0.000108 s⁻¹ and an on-rate (kon) of 214000 M⁻¹ s⁻¹. Besides, the “IC50 (read off the curve)” value in assay [2] was ~4 nM.

B2: 109-49_IA (109-49 containing the M118I and S95A variants) (antibody, V domains shown)
VH: EVQLVESGGDLVKPGGSLRLSCVASGFTFDDYGMSWVRQAPGKGLQWVSGINWAGGTIGYADAVKGRFTISRDNARNTVYLQMNSLRAEDTAVYYCARESPLRLGDLGGDYFYYYYYIDVWGQGTLVTVSS
VL: EVVMIQTPLSLSVSPGEPASISCRASQSVSSRYLVWYLQKPGQSPQLLIYGTSSRATGVSDRFSGSGSGTDFTLRISRVEAEDVGVYYCQQYDNAPRTFGQGTKVEIKR
notes: Canine IgGB/kappa; signal peptides left out; also called M118I / S95A
Take B2: the “relative affinity (apparent KD by SPR)” value in assay [3] is 0.003 to 0.1 nM. In assay [4], this molecule returned an equilibrium dissociation constant (Kd) of 1.31 nM, a koff of 7.09e-05 s⁻¹ and a kon of 54400 M⁻¹ s⁻¹.

B3: Clone 186 (human antibody 186, human IgG1) (antibody, V domains shown)
VH: EVQLLESGGGLIQPGGSLRLSCGASGFTFSSYAMSWVRQAPGKGLEWVSAISGSGNSTYYADSVKGRFTISRDNSKNTLYLQMNSLRAEDTAVYYCATQVVYYFKMDVWGKGTTVTVSS
VL: EIVMTQSPATLSVSPGERATLSCRASQSVSSNLAWYRQKPGQAPRLLIYGASTRATGIPARFSGSGSGTEFTLTISSLQSEDFAVYYCQQYYNWPPFTFGPGTKLDIKR
With B3, in assay [1], binding was characterised by a dissociation constant (Kd) of 1.81 nM, the koff amounted to 0.000118 s⁻¹ and the on-rate constant (kon) is 65200 M⁻¹ s⁻¹. Also, the “IC50 (read off the curve)” value in assay [2] was ~10 nM.

B4: 186-95 heavy chain S57A variant with wild-type light chain (antibody, V domains shown)
VH: EVQLVESGGDLVKPGGSLRLSCVASGFTFSSYAMSWVRQAPGKGLQWVSAISGSGNATYYADAVKGRFTISRDNAKNTLYLQMNSLRAEDTAVYYCATQVVYYFKMDVWGQGTLVTVSS
VL: EIVMTQSPGSLAGSAGESVSINCKSSQSVSSNLAWYQQKPGERPKLLIYGASTRASGVPARFSSSGSGTDFTLTINNLQAEDVGDYYCQQYYNWPPFTFGQGTKLEIKR
notes: Canine IgGB/kappa; signal peptides left out; also called S57A / Wild-type
With B4, in assay [5], the binding result is given as “binds”.

B5: 186-95_QLF (186-95 containing the N56Q, M106L, and W94F variants) (antibody, V domains shown)
VH: B4 VH with N56Q, A57S, M106L
VL: B4 VL with W94F
notes: Canine IgGB/kappa; signal peptides left out; also called N56Q-M106L / W94F
Consider B5, for which the binding result in assay [5] is given as “binds”. In addition, in assay [4], the dissociation constant (Kd) is 2.31 nM, the koff came to 0.000161 s⁻¹ and the on-rate (kon) was found to be 69800 M⁻¹ s⁻¹.

B6: 186-95 wild-type heavy chain with light chain W94Y variant (antibody, V domains shown)
VH: B4 VH with A57S
VL: B4 VL with W94Y
notes: Canine IgGB/kappa; signal peptides left out; also called Wild-type / W94Y
As to B6, in assay [5], the binding result was “binds”.

B7: 186-95 wild-type heavy chain with light chain W94F variant (antibody, V domains shown)
VH: B4 VH with A57S
VL: B4 VL with W94F
notes: Canine IgGB/kappa; signal peptides left out; also called Wild-type / W94F
As to B7, in assay [5], the binding result is reported as “binds”.

B8: caninized antibody clone 186-95 (antibody, V domains shown)
VH: B4 VH with A57S
VL: B4 VL
notes: Canine IgGB and canine kappa constant domains
Regarding B8, the binding result in assay [5] was “binds”.
